Source: patent publication US20260216366A1, “CONJUGATE AND USES THEREOF” (Full-Life Technologies UK Limited, priority 2022, published 2026)

T1: human Claudin 18.2-VLP (human, UniProt P56856-2 1-261)
T1 construct: also called CLDN18.2
T1 sequence (looked up): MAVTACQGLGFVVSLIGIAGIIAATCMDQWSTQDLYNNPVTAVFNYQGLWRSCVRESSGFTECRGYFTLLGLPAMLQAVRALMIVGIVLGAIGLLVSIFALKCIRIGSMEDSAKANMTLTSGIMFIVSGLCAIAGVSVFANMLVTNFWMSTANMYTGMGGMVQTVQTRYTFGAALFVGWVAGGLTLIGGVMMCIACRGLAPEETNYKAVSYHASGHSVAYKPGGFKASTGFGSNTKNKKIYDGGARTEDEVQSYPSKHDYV

B1: FAP-DOTAGA: FAP sdAb (SEQ ID NO. 5) conjugated with DOTAGA, used as control for chelating imaging radioisotope (conjugate)
VHH: QVQLLESGGGLVQPGGSLRLSCAASGFGFGNSLMSWVRRAPGKGLEWVSTIYPRGSFTDYADSVKGRFTISRDNSRNTLYLQMNSLRAEDTAVYYCATGWGRSSDYDPPGQGTLVTVSS
modifications: DOTAGA chelator conjugated
B2: FAP-L007: FAP sdAb (SEQ ID NO. 5) conjugated with functional linker L007 (conjugate)
VHH: B1 VHH
modifications: functional linker L007 conjugated
B3: CLDN18.2-L006: Claudin 18.2 sdAb (SEQ ID NO. 1) conjugated with functional linker L006 (conjugate)
VHH: EVQLVESGGGLVQPGGSLRLSCAASGSFFRIVAMGWYRQAPGSQRELVATITRGGSTYYADSVKGRFTISRDNAKNTLYLQMNSLRAEDTAVYYCNVRVEVPFMQPNDYWGQGTLVTVSS
modifications: functional linker L006 conjugated
B4: CLDN18.2-L011: Claudin 18.2 sdAb (SEQ ID NO. 1) conjugated with functional linker L011 (conjugate)
VHH: B3 VHH
modifications: functional linker L011 conjugated
B5: CLDN18.2-L003: Claudin 18.2 sdAb (SEQ ID NO. 1) conjugated with functional linker L003 (conjugate)
VHH: B3 VHH
modifications: functional linker L003 conjugated
B6: CLDN18.2-L005: Claudin 18.2 sdAb (SEQ ID NO. 1) conjugated with functional linker L005 (conjugate)
VHH: B3 VHH
modifications: functional linker L005 conjugated
B7: CLDN18.2-L009: Claudin 18.2 sdAb (SEQ ID NO. 1) conjugated with functional linker L009 (conjugate)
VHH: B3 VHH
modifications: functional linker L009 conjugated
B8: CLDN18.2-DOTAGA: Claudin 18.2 sdAb (SEQ ID NO. 1) conjugated with DOTAGA, used as control for chelating imaging radioisotope (conjugate)
VHH: B3 VHH
modifications: DOTAGA chelator conjugated
B9: CLDN18.2-L012: Claudin 18.2 sdAb (SEQ ID NO. 1) conjugated with functional linker L012 (conjugate)
VHH: B3 VHH
modifications: functional linker L012 conjugated
B10: CLDN18.2-L010: Claudin 18.2 sdAb (SEQ ID NO. 1) conjugated with functional linker L010 (conjugate)
VHH: B3 VHH
modifications: functional linker L010 conjugated
B11: CLDN18.2-L008: Claudin 18.2 sdAb (SEQ ID NO. 1) conjugated with functional linker L008 (conjugate)
VHH: B3 VHH
modifications: functional linker L008 conjugated
B12: CLDN18.2-L007: Claudin 18.2 sdAb (SEQ ID NO. 1) conjugated with functional linker L007 (conjugate)
VHH: B3 VHH
modifications: functional linker L007 conjugated
B13: CLDN18.2-DOTAGA (VHH)
VHH: B3 VHH
modifications: DOTAGA chelator conjugated to the sdAb, residue not stated; DOL 1.23
notes: also called CLDN18.2 sdAb conjugated with DOTAGA
B14: CLDN18.2-L010 (VHH)
VHH: B3 VHH
modifications: functional linker L010 conjugated to the sdAb, residue not stated; DOL 1.54
notes: also called CLDN18.2 sdAb-linker L010 conjugate; linker 010 conjugate
B15: CLDN18.2-L012 (VHH)
VHH: B3 VHH
modifications: functional linker L012 conjugated to the sdAb, residue not stated; DOL 1.65
notes: also called CLDN18.2 sdAb-linker L012 conjugate
B16: CLDN18.2-L002 (VHH)
VHH: B3 VHH
modifications: functional linker L002 conjugated to the sdAb, residue not stated; DOL 1.18
notes: also called CLDN18.2 sdAb-linker L002 conjugate
B17: CLDN18.2-L004 (VHH)
VHH: B3 VHH
modifications: functional linker L004 conjugated to the sdAb, residue not stated; DOL 1.37
notes: also called CLDN18.2 sdAb-linker L004 conjugate
B18: CLDN18.2-L001 (VHH)
VHH: B3 VHH
modifications: functional linker L001 conjugated to the sdAb, residue not stated; DOL 1.13
notes: also called CLDN18.2 sdAb-linker L001 conjugate
B19: CLDN18.2-L007 (VHH)
VHH: B3 VHH
modifications: functional linker L007 conjugated to the sdAb, residue not stated; DOL 1.69
notes: also called CLDN18.2 sdAb-linker L007 conjugate; linker 007 conjugate
B20: CLDN18.2-L009 (VHH)
VHH: B3 VHH
modifications: functional linker L009 conjugated to the sdAb, residue not stated; DOL 1.77
notes: also called CLDN18.2 sdAb-linker L009 conjugate; linker 009 conjugate

System: not listed separately
Assay: Pharmacokinetic study of FAP-linker conjugates (serum ELISA, NCA)
Format: in vivo, BALB/c mice
Settings: BALB/c mice, intravenous, about 1 mg/kg, serum, over 48 hours
Protocol: he in vivo pharmacokinetic profile of the FAP-linker conjugates was analyzed. Briefly, BALB/c mice were administered with the conjugates by intravenous injection at a dose of about 1 mg/kg. Then, whole blood of the animal was collected at different time periods over 48 hours.
(§1) The whole blood was collected into a tube without anticoagulation and maintained at room temperature for more than 30 minutes, followed by centrifugated at approximately 5000 rpm at 4° C. for 5 minutes to obtain serum. Concentration of the conjugates in serum was then measured by ELISA using HRP-labeled goat anti-alpaca IgG VHH domain secondary antibody. The data was further analyzed using PK Solver software, and the […] (NCA) was used to evaluate the pharmacokinetic parameters, as shown in Table 8 and FIG. 3.

Row | Molecule | AUCall [ng·h/mL] | Cl [mL/min/kg] | T1/2 [min] | Vd [L/kg]
1 | B1 | 1560 ± 88 | 10.7 ± 0.633 | 29.2 ± 0.12 | 0.315 ± 0.020
2 | B2 | 45700 ± 3230 | 0.367 ± 0.033 | 486 ± 6.84 | 0.206 ± 0.017

System: not listed separately
Assay: Pharmacokinetic study of CLDN18.2-linker conjugates (serum ELISA, NCA)
Format: in vivo, BALB/c mice
Settings: BALB/c mice, intravenous, about 1 mg/kg, serum, over 48 hours
Protocol: The in vivo pharmacokinetic profile of the CLDN18.2-linker conjugates was analyzed. Briefly, BALB/c mice were administered with the conjugates by intravenous injection at a dose of about 1 mg/kg. Then, whole blood of the animal was collected at different time points over 48 hours.
as §1, with “centrifuge” for “centrifugated”, “7” for “8”, “2.” for “3.”

Row | Molecule | AUCall [ng·h/mL] | Cl [mL/min/kg] | T1/2 [min] | Vd [L/kg]
3 | B3 | 650 ± 69 | 22.7 ± 2.2 | 13.5 ± 0.36 | 0.408 ± 0.026
4 | B4 | 15700 ± 816 | 0.95 ± 0.017 | 90 ± 10.1 | 0.106 ± 0.008
5 | B5 | 460 ± 77 | 30.2 ± 4.1 | 11.2 ± 1.56 | 0.431 ± 0.006
6 | B6 | 881 ± 118 | 17.8 ± 2 | 13.4 ± 1.56 | 0.284 ± 0.017
7 | B7 | 148000 ± 5140 | 0.083 ± 0 | 1490 ± 323 | 0.166 ± 0.023
8 | B8 | 1450 ± 149 | 10.2 ± 1.2 | 32.9 ± 2.52 | 0.245 ± 0.032
9 | B9 | 2220 ± 223 | 7.02 ± 0.7 | 17.3 ± 1.14 | 0.151 ± 0.025
10 | B10 | 14500 ± 149 | 1.02 ± 0.033 | 175 ± 7.02 | 0.199 ± 0.012
11 | B11 | 1880 ± 177 | 7.32 ± 0.367 | 38.2 ± 4.02 | 0.375 ± 0.043
12 | B12 | 33100 ± 4920 | 0.45 ± 0.05 | 361 ± 73.8 | 0.183 ± 0.014

Same assay, conditions: FIG. 2; CLDN18.2 conjugate of the named linker compared to the control group

Row | Molecule | blood circulation of the CLDN18.2 conjugates
13 | CCCCCCCCCCCCC(=O)NCCCCC(NC(=O)CNC(=O)CCC(C(=O)O)N1CCN(CC(=O)O)CCN(CC(=O)O)CCN(CC(=O)O)CC1)C(=O)NCc1ccc(N=C=S)cc1 (stereo not shown) [L011] | significantly prolonged blood circulation
14 | Cc1ccc(CCCC(=O)NCCCCC(NC(=O)CNC(=O)CCC(C(=O)O)N2CCN(CC(=O)O)CCN(CC(=O)O)CCN(CC(=O)O)CC2)C(=O)NCc2ccc(N=C=S)cc2)cc1 (stereo not shown) [L010] | significantly prolonged blood circulation

Molecular target: T1, human Claudin 18.2-VLP
Assay: ELISA, plate coated with human Claudin 18.2-VLP, HRP anti-sdAb detection
Settings: not given
Protocol: Binding affinities of the prepared conjugates with tumor antigen was evaluated by ELISA. […] On the next day, the plate was washed by 0.05% PBST and blocked by 10% StartingBlock buffer (Thermo, #37538) at room temperature for 1 hr. Then, 100 μL of serial diluted conjugate samples in 1% StartingBlock buffer was added to the plate. The plate was further incubated at room temperature for 2 hrs under shaking at 100 rpm and washed by 0.05% PBST. Then 100 μL 0.4 μg/mL HRP-conjugated anti-sdAb secondary antibody (Jackson, #128-035-232) was added and subject to 1 hr incubation at room temperature under shaking at 100 rpm. The plate was then washed by 0.05% PBST and developed using TMB solution (KPL, #5120-00820).

Row | Molecule | EC50 [nM]
15 | B13 | 0.84
16 | B14 | 2.31
17 | B15 | 1.93
18 | B16 | 2.18
19 | B17 | 3.47
20 | B18 | 1.75
21 | B19 | 7.41
22 | B20 | 3.11
